Where two headings read alike, the source gives them in different places.
Legend:
[1] = molecular target: CdiI^NC101-His6 immunity protein, crystallography construct (E. coli NC101); test: crystal structure
[2] = molecular target: CdiI^NC101-His6 immunity protein, crystallography construct (E. coli NC101); test: crystal structure; remark: listed apart in the source

- stoichiometry N [1]: 2
- stoichiometry N [2]: 2
Substance: CdiI^NC101-His6 immunity protein, crystallography construct (natural protein)

Reference: PMC5737660
